The record followed here is publication PMC4407014 (Immunology and Cell Biology, 2014).

The assay concerns the target Recombinant human CD4 (crystallisation construct) (Homo sapiens, UniProt P01730). As to the kind of experiment: crystal structure.

B1: Fab fragment of BT-061 (tregalizumab) (Fab, V domains shown)
VH: EEQLVESGGGLVKPGGSLRLSCAASGFSFSDCRMYWLRQAPGKGLEWIGVISVKSENYGANYAESVRGRFTISRDDSKNTVYLQMNSLKTEDTAVYYCSASYYRYDVGAWFAYWGQGTLVTVSS
VL: DIVMTQSPDSLAVSLGERATINCRASKSVSTSGYSYIYWYQQKPGQPPKLLIYLASILESGVPDRFSGSGSGTDFTLTISSLQAEDVAVYYCQHSRELPWTFGQGTKVEIK
Take B1: the binding result is reported as “binds”.
